Assay results as given in patent publication US20100256148A1, “USE OF CFMS INHIBITOR FOR TREATING OR PREVENTING BONE CANCER AND THE BONE LOSS AND BONE PAIN ASSOCIATED WITH BONE CANCER” (priority 2007, published 2010).

Biological target: T1, CSF-1R (Mus musculus, UniProt P09581)
T1 construct: from tissue; host or cells: mouse spleen, in vivo
T1 sequence (P09581 20-977): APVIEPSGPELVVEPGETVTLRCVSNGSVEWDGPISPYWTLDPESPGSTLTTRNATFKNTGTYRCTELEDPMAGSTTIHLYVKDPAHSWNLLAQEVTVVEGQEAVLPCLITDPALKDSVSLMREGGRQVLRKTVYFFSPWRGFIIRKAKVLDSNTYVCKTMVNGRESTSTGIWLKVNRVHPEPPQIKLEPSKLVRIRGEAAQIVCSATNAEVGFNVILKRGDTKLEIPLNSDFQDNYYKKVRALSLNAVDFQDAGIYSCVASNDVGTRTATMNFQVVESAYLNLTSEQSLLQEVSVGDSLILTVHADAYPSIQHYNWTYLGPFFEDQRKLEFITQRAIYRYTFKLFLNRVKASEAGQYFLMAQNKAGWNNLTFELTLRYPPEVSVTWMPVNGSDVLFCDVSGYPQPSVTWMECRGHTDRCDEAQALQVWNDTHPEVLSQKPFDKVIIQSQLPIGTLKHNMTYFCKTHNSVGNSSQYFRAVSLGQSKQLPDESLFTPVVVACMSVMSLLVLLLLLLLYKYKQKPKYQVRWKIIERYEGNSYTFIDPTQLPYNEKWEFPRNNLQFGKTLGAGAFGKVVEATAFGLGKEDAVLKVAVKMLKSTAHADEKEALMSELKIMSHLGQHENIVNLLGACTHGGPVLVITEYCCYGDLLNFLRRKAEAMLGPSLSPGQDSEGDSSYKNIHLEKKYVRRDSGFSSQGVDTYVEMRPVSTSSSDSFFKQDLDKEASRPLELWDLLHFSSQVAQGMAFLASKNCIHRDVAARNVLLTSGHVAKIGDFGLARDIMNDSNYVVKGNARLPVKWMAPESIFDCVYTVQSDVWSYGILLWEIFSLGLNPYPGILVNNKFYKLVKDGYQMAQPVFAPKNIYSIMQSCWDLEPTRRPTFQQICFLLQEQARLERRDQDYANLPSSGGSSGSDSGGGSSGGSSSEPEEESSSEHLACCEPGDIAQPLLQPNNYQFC
Assay: In vivo pharmacodynamic model: CSF-1-induced splenic c-fos mRNA
Description: Eight hours later, mice were administered saline or 0.8 μg recombinant mouse CSF-1 (Cell Biosciences Inc, Norwood, Mass.) via the tail vein. Fifteen minutes after the tail vein injection, mice were sacrificed and spleens were isolated and snap frozen on dry ice. The frozen tissue was homogenized in 1 ml of Trizol (Invitrogen) per 50 mg of tissue, and RNA was purified according to the Trizol instructions and treated with 6.8 Kunitz units of RNase-free DNase (Qiagen, Valencia, Calif.) to degrade contaminating genomic DNA. The RNA was purified further using RNeasy columns (Qiagen). RT-PCR was performed in 25 μL reaction volumes using Reverse Transciptase qPCR Master Mix (Eurogentec) and approximately 50 ng RNA. Applied Biosystems, Inc., (Foster City, Calif.) was the source for the primer probe set for mouse c-fos mRNA (part# Mm00487425) and 18S rRNA (part# 4333760F). Amplification and detection were performed using the ABI Prism 7000 Sequence Detector system. Standard curves were created for c-fos mRNA and for 18s rRNA using RNA isolated from a vehicle-treated, CSF-1-induced mouse and used to calculate relative expression levels in all other samples. c-fos mRNA values were normalized to 18S rRNA content. Averaged, normalized c-fos content in the saline (no CSF-1) group was assigned a value of one and all other groups were expressed as “fold-induced”.

B1: CSF-1: recombinant mouse CSF-1 (Cell Biosciences Inc), given via the tail vein as challenge (protein, UniProt P07141 33-552, looked up)
Macrophage colony-stimulating …: KEVSEHCSHMIGNGHLKVLQQLIDSQMETSCQIAFEFVDQEQLDDPVCYLKKAFFLVQDIIDETMRFKDNTPNANATERLQELSNNLNSCFTKDYEEQNKACVRTFHETPLQLLEKIKNFFNETKNLLEKDWNIFTKNCNNSFAKCSSRDVVTKPDCNCLYPKATPSSDPASASPHQPPAPSMAPLAGLAWDDSQRTEGSSLLPSELPLRIEDPGSAKQRPPRSTCQTLESTEQPNHGDRLTEDSQPHPSAGGPVPGVEDILESSLGTNWVLEEASGEASEGFLTQEAKFSPSTPVGGSIQAETDRPRALSASPFPKSTEDQKPVDITDRPLTEVNPMRPIGQTQNNTPEKTDGTSTLREDHQEPGSPHIATPNPQRVSNSATPVAQLLLPKSHSWGIVLPLGELEGKRSTRDRRSPAELEGGSASEGAARPVARFNSIPLTDTGHVEQHEGSSDPQIPESVFHLLVPGIILVLLTVGGLLFYKWKWRSHRDPQTLDSSVGRPEDSSLTQDEDRQVELPV
ED50 of splenic c-fos mRNA induction (intravenous recombinant CSF-1): ca. 0.8 μg/mouse | induction of splenic c-fos mRNA (intravenous recombinant CSF-1, within fifteen minutes): 10- to 50 fold
